Experimental data published in the supplement of paper PMC11811203.

B1: THAP1; numbered along this chain (parent)
chain: MVQSCSAYGCKNRYDKDKPVSFHKFPLTRPSLCKEWEAAVRRKNFKPTKYSSICSEHFTPDCFKRECNNKLLKENAVPTIFLCTEPHDKKEDLLEPQEQLPPPPLPPPVSQVDAAIGLLMPPLQTPVNLSVFCDHNYTVEDTMHQRKRIHQLEQQVEKLRKKLKTAQQRCRRQERQLEKLKEVVHFQKEKDDVSERGYVILPNDYFEIVEVPA

Variants of: B1
Experiment: THAP1 transcriptional activity (GFP+/GFP- enrichment relative to wild-type constructs) (ratio to WT); higher = more THAP1 activity (PSMB5 reporter activation)
Conditions: with PSMB5 promoter-GFP reporter
Procedure: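 Deep mutational scan of human THAP1. Site-saturation single amino acid variant library (residues 2-213) was expressed by lentivirus at MOI ~0.3 in THAP1-knockout HEK-293T cells carrying an endogenous PSMB5 promoter-GFP knock-in reporter. Five days post-transduction, BFP+ cells were FACS-sorted into GFP dim and GFP bright populations and variants were counted by Illumina sequencing. Activity is the GFP-bright/GFP-dim read fold change, mean of 2 replicates, divided by the mean fold change of wild-type (synonymous) constructs in the same screen pool; WT = 1.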

Row | Variant | THAP1 transcriptional activity
1 | MVPSCSAYGCKNRYDKDKPVSFHKFPLTRPSLCKEWEAAVRRKNFKPTKYSSICSEHFTPDCFKRECNNKLLKENAVPTIFLCTEPHDKKEDLLEPQEQLPPPPLPPPVSQVDAAIGLLMPPLQTPVNLSVFCDHNYTVEDTMHQRKRIHQLEQQVEKLRKKLKTAQQRCRRQERQLEKLKEVVHFQKEKDDVSERGYVILPNDYFEIVEVPA [Q3P] | 0.186
2 | MVMSCSAYGCKNRYDKDKPVSFHKFPLTRPSLCKEWEAAVRRKNFKPTKYSSICSEHFTPDCFKRECNNKLLKENAVPTIFLCTEPHDKKEDLLEPQEQLPPPPLPPPVSQVDAAIGLLMPPLQTPVNLSVFCDHNYTVEDTMHQRKRIHQLEQQVEKLRKKLKTAQQRCRRQERQLEKLKEVVHFQKEKDDVSERGYVILPNDYFEIVEVPA [Q3M] | 0.486
3 | MVKSCSAYGCKNRYDKDKPVSFHKFPLTRPSLCKEWEAAVRRKNFKPTKYSSICSEHFTPDCFKRECNNKLLKENAVPTIFLCTEPHDKKEDLLEPQEQLPPPPLPPPVSQVDAAIGLLMPPLQTPVNLSVFCDHNYTVEDTMHQRKRIHQLEQQVEKLRKKLKTAQQRCRRQERQLEKLKEVVHFQKEKDDVSERGYVILPNDYFEIVEVPA [Q3K] | 0.266
4 | MVDSCSAYGCKNRYDKDKPVSFHKFPLTRPSLCKEWEAAVRRKNFKPTKYSSICSEHFTPDCFKRECNNKLLKENAVPTIFLCTEPHDKKEDLLEPQEQLPPPPLPPPVSQVDAAIGLLMPPLQTPVNLSVFCDHNYTVEDTMHQRKRIHQLEQQVEKLRKKLKTAQQRCRRQERQLEKLKEVVHFQKEKDDVSERGYVILPNDYFEIVEVPA [Q3D] | 0.119
5 | MVNSCSAYGCKNRYDKDKPVSFHKFPLTRPSLCKEWEAAVRRKNFKPTKYSSICSEHFTPDCFKRECNNKLLKENAVPTIFLCTEPHDKKEDLLEPQEQLPPPPLPPPVSQVDAAIGLLMPPLQTPVNLSVFCDHNYTVEDTMHQRKRIHQLEQQVEKLRKKLKTAQQRCRRQERQLEKLKEVVHFQKEKDDVSERGYVILPNDYFEIVEVPA [Q3N] | 0.442
6 | MVCSCSAYGCKNRYDKDKPVSFHKFPLTRPSLCKEWEAAVRRKNFKPTKYSSICSEHFTPDCFKRECNNKLLKENAVPTIFLCTEPHDKKEDLLEPQEQLPPPPLPPPVSQVDAAIGLLMPPLQTPVNLSVFCDHNYTVEDTMHQRKRIHQLEQQVEKLRKKLKTAQQRCRRQERQLEKLKEVVHFQKEKDDVSERGYVILPNDYFEIVEVPA [Q3C] | 0.269
7 | MVLSCSAYGCKNRYDKDKPVSFHKFPLTRPSLCKEWEAAVRRKNFKPTKYSSICSEHFTPDCFKRECNNKLLKENAVPTIFLCTEPHDKKEDLLEPQEQLPPPPLPPPVSQVDAAIGLLMPPLQTPVNLSVFCDHNYTVEDTMHQRKRIHQLEQQVEKLRKKLKTAQQRCRRQERQLEKLKEVVHFQKEKDDVSERGYVILPNDYFEIVEVPA [Q3L] | 0.354
8 | MVISCSAYGCKNRYDKDKPVSFHKFPLTRPSLCKEWEAAVRRKNFKPTKYSSICSEHFTPDCFKRECNNKLLKENAVPTIFLCTEPHDKKEDLLEPQEQLPPPPLPPPVSQVDAAIGLLMPPLQTPVNLSVFCDHNYTVEDTMHQRKRIHQLEQQVEKLRKKLKTAQQRCRRQERQLEKLKEVVHFQKEKDDVSERGYVILPNDYFEIVEVPA [Q3I] | 0.678
9 | MVSSCSAYGCKNRYDKDKPVSFHKFPLTRPSLCKEWEAAVRRKNFKPTKYSSICSEHFTPDCFKRECNNKLLKENAVPTIFLCTEPHDKKEDLLEPQEQLPPPPLPPPVSQVDAAIGLLMPPLQTPVNLSVFCDHNYTVEDTMHQRKRIHQLEQQVEKLRKKLKTAQQRCRRQERQLEKLKEVVHFQKEKDDVSERGYVILPNDYFEIVEVPA [Q3S] | 0.278
10 | MVHSCSAYGCKNRYDKDKPVSFHKFPLTRPSLCKEWEAAVRRKNFKPTKYSSICSEHFTPDCFKRECNNKLLKENAVPTIFLCTEPHDKKEDLLEPQEQLPPPPLPPPVSQVDAAIGLLMPPLQTPVNLSVFCDHNYTVEDTMHQRKRIHQLEQQVEKLRKKLKTAQQRCRRQERQLEKLKEVVHFQKEKDDVSERGYVILPNDYFEIVEVPA [Q3H] | 1.01
11 | MVASCSAYGCKNRYDKDKPVSFHKFPLTRPSLCKEWEAAVRRKNFKPTKYSSICSEHFTPDCFKRECNNKLLKENAVPTIFLCTEPHDKKEDLLEPQEQLPPPPLPPPVSQVDAAIGLLMPPLQTPVNLSVFCDHNYTVEDTMHQRKRIHQLEQQVEKLRKKLKTAQQRCRRQERQLEKLKEVVHFQKEKDDVSERGYVILPNDYFEIVEVPA [Q3A] | 0.849
12 | MVFSCSAYGCKNRYDKDKPVSFHKFPLTRPSLCKEWEAAVRRKNFKPTKYSSICSEHFTPDCFKRECNNKLLKENAVPTIFLCTEPHDKKEDLLEPQEQLPPPPLPPPVSQVDAAIGLLMPPLQTPVNLSVFCDHNYTVEDTMHQRKRIHQLEQQVEKLRKKLKTAQQRCRRQERQLEKLKEVVHFQKEKDDVSERGYVILPNDYFEIVEVPA [Q3F] | 0.143
13 | MVRSCSAYGCKNRYDKDKPVSFHKFPLTRPSLCKEWEAAVRRKNFKPTKYSSICSEHFTPDCFKRECNNKLLKENAVPTIFLCTEPHDKKEDLLEPQEQLPPPPLPPPVSQVDAAIGLLMPPLQTPVNLSVFCDHNYTVEDTMHQRKRIHQLEQQVEKLRKKLKTAQQRCRRQERQLEKLKEVVHFQKEKDDVSERGYVILPNDYFEIVEVPA [Q3R] | 0.187
14 | MVGSCSAYGCKNRYDKDKPVSFHKFPLTRPSLCKEWEAAVRRKNFKPTKYSSICSEHFTPDCFKRECNNKLLKENAVPTIFLCTEPHDKKEDLLEPQEQLPPPPLPPPVSQVDAAIGLLMPPLQTPVNLSVFCDHNYTVEDTMHQRKRIHQLEQQVEKLRKKLKTAQQRCRRQERQLEKLKEVVHFQKEKDDVSERGYVILPNDYFEIVEVPA [Q3G] | 0.159
15 | MVWSCSAYGCKNRYDKDKPVSFHKFPLTRPSLCKEWEAAVRRKNFKPTKYSSICSEHFTPDCFKRECNNKLLKENAVPTIFLCTEPHDKKEDLLEPQEQLPPPPLPPPVSQVDAAIGLLMPPLQTPVNLSVFCDHNYTVEDTMHQRKRIHQLEQQVEKLRKKLKTAQQRCRRQERQLEKLKEVVHFQKEKDDVSERGYVILPNDYFEIVEVPA [Q3W] | 0.0989
16 | MVVSCSAYGCKNRYDKDKPVSFHKFPLTRPSLCKEWEAAVRRKNFKPTKYSSICSEHFTPDCFKRECNNKLLKENAVPTIFLCTEPHDKKEDLLEPQEQLPPPPLPPPVSQVDAAIGLLMPPLQTPVNLSVFCDHNYTVEDTMHQRKRIHQLEQQVEKLRKKLKTAQQRCRRQERQLEKLKEVVHFQKEKDDVSERGYVILPNDYFEIVEVPA [Q3V] | 0.563
17 | MVYSCSAYGCKNRYDKDKPVSFHKFPLTRPSLCKEWEAAVRRKNFKPTKYSSICSEHFTPDCFKRECNNKLLKENAVPTIFLCTEPHDKKEDLLEPQEQLPPPPLPPPVSQVDAAIGLLMPPLQTPVNLSVFCDHNYTVEDTMHQRKRIHQLEQQVEKLRKKLKTAQQRCRRQERQLEKLKEVVHFQKEKDDVSERGYVILPNDYFEIVEVPA [Q3Y] | 0.149
18 | MVESCSAYGCKNRYDKDKPVSFHKFPLTRPSLCKEWEAAVRRKNFKPTKYSSICSEHFTPDCFKRECNNKLLKENAVPTIFLCTEPHDKKEDLLEPQEQLPPPPLPPPVSQVDAAIGLLMPPLQTPVNLSVFCDHNYTVEDTMHQRKRIHQLEQQVEKLRKKLKTAQQRCRRQERQLEKLKEVVHFQKEKDDVSERGYVILPNDYFEIVEVPA [Q3E] | 0.155
19 | MVTSCSAYGCKNRYDKDKPVSFHKFPLTRPSLCKEWEAAVRRKNFKPTKYSSICSEHFTPDCFKRECNNKLLKENAVPTIFLCTEPHDKKEDLLEPQEQLPPPPLPPPVSQVDAAIGLLMPPLQTPVNLSVFCDHNYTVEDTMHQRKRIHQLEQQVEKLRKKLKTAQQRCRRQERQLEKLKEVVHFQKEKDDVSERGYVILPNDYFEIVEVPA [Q3T] | 0.534
20 | MVQFCSAYGCKNRYDKDKPVSFHKFPLTRPSLCKEWEAAVRRKNFKPTKYSSICSEHFTPDCFKRECNNKLLKENAVPTIFLCTEPHDKKEDLLEPQEQLPPPPLPPPVSQVDAAIGLLMPPLQTPVNLSVFCDHNYTVEDTMHQRKRIHQLEQQVEKLRKKLKTAQQRCRRQERQLEKLKEVVHFQKEKDDVSERGYVILPNDYFEIVEVPA [S4F] | 0.177
21 | MVQACSAYGCKNRYDKDKPVSFHKFPLTRPSLCKEWEAAVRRKNFKPTKYSSICSEHFTPDCFKRECNNKLLKENAVPTIFLCTEPHDKKEDLLEPQEQLPPPPLPPPVSQVDAAIGLLMPPLQTPVNLSVFCDHNYTVEDTMHQRKRIHQLEQQVEKLRKKLKTAQQRCRRQERQLEKLKEVVHFQKEKDDVSERGYVILPNDYFEIVEVPA [S4A] | 0.338
22 | MVQECSAYGCKNRYDKDKPVSFHKFPLTRPSLCKEWEAAVRRKNFKPTKYSSICSEHFTPDCFKRECNNKLLKENAVPTIFLCTEPHDKKEDLLEPQEQLPPPPLPPPVSQVDAAIGLLMPPLQTPVNLSVFCDHNYTVEDTMHQRKRIHQLEQQVEKLRKKLKTAQQRCRRQERQLEKLKEVVHFQKEKDDVSERGYVILPNDYFEIVEVPA [S4E] | 0.103
23 | MVQCCSAYGCKNRYDKDKPVSFHKFPLTRPSLCKEWEAAVRRKNFKPTKYSSICSEHFTPDCFKRECNNKLLKENAVPTIFLCTEPHDKKEDLLEPQEQLPPPPLPPPVSQVDAAIGLLMPPLQTPVNLSVFCDHNYTVEDTMHQRKRIHQLEQQVEKLRKKLKTAQQRCRRQERQLEKLKEVVHFQKEKDDVSERGYVILPNDYFEIVEVPA [S4C] | 0.233
24 | MVQDCSAYGCKNRYDKDKPVSFHKFPLTRPSLCKEWEAAVRRKNFKPTKYSSICSEHFTPDCFKRECNNKLLKENAVPTIFLCTEPHDKKEDLLEPQEQLPPPPLPPPVSQVDAAIGLLMPPLQTPVNLSVFCDHNYTVEDTMHQRKRIHQLEQQVEKLRKKLKTAQQRCRRQERQLEKLKEVVHFQKEKDDVSERGYVILPNDYFEIVEVPA [S4D] | 0.154
25 | MTQSCSAYGCKNRYDKDKPVSFHKFPLTRPSLCKEWEAAVRRKNFKPTKYSSICSEHFTPDCFKRECNNKLLKENAVPTIFLCTEPHDKKEDLLEPQEQLPPPPLPPPVSQVDAAIGLLMPPLQTPVNLSVFCDHNYTVEDTMHQRKRIHQLEQQVEKLRKKLKTAQQRCRRQERQLEKLKEVVHFQKEKDDVSERGYVILPNDYFEIVEVPA [V2T] | 0.21
26 | MWQSCSAYGCKNRYDKDKPVSFHKFPLTRPSLCKEWEAAVRRKNFKPTKYSSICSEHFTPDCFKRECNNKLLKENAVPTIFLCTEPHDKKEDLLEPQEQLPPPPLPPPVSQVDAAIGLLMPPLQTPVNLSVFCDHNYTVEDTMHQRKRIHQLEQQVEKLRKKLKTAQQRCRRQERQLEKLKEVVHFQKEKDDVSERGYVILPNDYFEIVEVPA [V2W] | 0.109
27 | MYQSCSAYGCKNRYDKDKPVSFHKFPLTRPSLCKEWEAAVRRKNFKPTKYSSICSEHFTPDCFKRECNNKLLKENAVPTIFLCTEPHDKKEDLLEPQEQLPPPPLPPPVSQVDAAIGLLMPPLQTPVNLSVFCDHNYTVEDTMHQRKRIHQLEQQVEKLRKKLKTAQQRCRRQERQLEKLKEVVHFQKEKDDVSERGYVILPNDYFEIVEVPA [V2Y] | 0.16
28 | MSQSCSAYGCKNRYDKDKPVSFHKFPLTRPSLCKEWEAAVRRKNFKPTKYSSICSEHFTPDCFKRECNNKLLKENAVPTIFLCTEPHDKKEDLLEPQEQLPPPPLPPPVSQVDAAIGLLMPPLQTPVNLSVFCDHNYTVEDTMHQRKRIHQLEQQVEKLRKKLKTAQQRCRRQERQLEKLKEVVHFQKEKDDVSERGYVILPNDYFEIVEVPA [V2S] | 0.297
